Reference: patent publication US20210054071A1 (NANJING LEGEND BIOTECH, published 2021)
Where two headings read alike, the source gives them in different places. One block for each binder: values may come before it.

Experiments:
[1] = molecular target: T1, human TIGIT-His protein (Acrobiosystems) (human, UniProt Q495A1 22-141); experiment: SPR as in Example 2
T1 construct: Bought; Genbank NP_776160
T1 sequence: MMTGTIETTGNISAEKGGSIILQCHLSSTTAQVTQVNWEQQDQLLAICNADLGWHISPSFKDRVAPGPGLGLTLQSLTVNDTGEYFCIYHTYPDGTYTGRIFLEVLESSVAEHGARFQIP

[2] = molecular target: T2, mouse TIGIT-His protein (Acrobiosystems) (mouse, UniProt P86176 29-148, limits assumed); experiment: SPR as in Example 2
T2 construct: bought
T2 sequence (looked up): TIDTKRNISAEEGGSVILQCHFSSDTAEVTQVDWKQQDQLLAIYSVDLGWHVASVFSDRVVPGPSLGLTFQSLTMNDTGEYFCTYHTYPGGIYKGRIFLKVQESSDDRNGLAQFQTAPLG

[3] = molecular target: T3, TIGIT on TIGIT effector cells (UniProt Q495A1 22-244, limits assumed); experiment: cell-based or functional assay
T3 sequence (looked up): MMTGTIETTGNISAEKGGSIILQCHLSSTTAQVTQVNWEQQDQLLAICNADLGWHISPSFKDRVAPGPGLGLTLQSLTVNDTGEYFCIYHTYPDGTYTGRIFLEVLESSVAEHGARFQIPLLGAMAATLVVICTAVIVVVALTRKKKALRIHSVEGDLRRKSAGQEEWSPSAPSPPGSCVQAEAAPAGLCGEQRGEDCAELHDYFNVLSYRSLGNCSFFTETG

[4] = molecular target: T3, TIGIT on TIGIT effector cells; experiment: cell-based or functional assay; remark: listed apart in the source
[5] = molecular target: T4, TIGIT on activated primary human T cells (human, UniProt Q495A1); experiment: FACS binding to activated, expanded primary human CD8+ T cells isolated from PBMCs; the sheet names only the cells, target by the binder's specificity as named in the filing (anti-TIGIT)
T4 sequence (receptor, looked up): T3 sequence (looked up)

[6] = molecular target: T4, TIGIT on activated primary human T cells; experiment: FACS binding to activated, expanded primary human CD4+ T cells isolated from PBMCs; the sheet names only the cells, target by the binder's specificity as named in the filing (anti-TIGIT)
[7] = molecular target: T5, human PD-1 (Acrobiosystems) (human, UniProt Q15116 25-167); experiment: SPR as in Example 2
T5 construct: bought

PD-1 expressed on cells [8] = molecular target: T6, PD-1 expressed on cells (UniProt Q15116 25-288, limits assumed); experiment: FACS, CHO-PD-1 cells
T6 construct: whole, on cells; also called CHO-PD-1 cells; PD-1 effector cells

PD-1 expressed on cells [9] = molecular target: T6, PD-1 expressed on cells; experiment: cell-based or functional assay
PD-1 expressed on cells [10] = molecular target: T6, PD-1 expressed on cells; experiment: FACS competition, PD-L1 binding to CHO-PD-1 cells
[11] = molecular target: T7, human TIGIT expressed on CHO-K1 cells (human, UniProt Q495A1 22-244); experiment: FACS, CHO-TIGIT cells
T7 construct: also called CHO/human TIGIT cells; CHO-TIGIT cells
T7 sequence: T3 sequence (looked up)

[12] = molecular target: T7, human TIGIT expressed on CHO-K1 cells; experiment: FACS, CHO-TIGIT cells; remark: listed apart in the source
[13] = molecular target: T3, TIGIT on TIGIT effector cells; experiment: cell-based or functional assay; remark: listed apart in the source
[14] = molecular target: T3, TIGIT on TIGIT effector cells; experiment: cell-based or functional assay; remark: listed apart in the source
[15] = molecular target: T3, TIGIT on TIGIT effector cells; experiment: cell-based or functional assay; remark: listed apart in the source
[16] = molecular target: T7, human TIGIT expressed on CHO-K1 cells; experiment: FACS, CHO-K1 cells expressing human TIGIT
[17] = molecular target: T7, human TIGIT expressed on CHO-K1 cells; experiment: FACS, CHO-K1 cells expressing human TIGIT; remark: listed apart in the source
[18] = molecular target: T8, cynomolgus TIGIT expressed on CHO-K1 cells (cynomolgus, UniProt A0A7N9I9V4 89-312); experiment: FACS, CHO-K1 cells expressing cynomolgus TIGIT
T8 construct: whole, on cells

[19] = molecular target: T8, cynomolgus TIGIT expressed on CHO-K1 …; experiment: FACS, CHO-K1 cells expressing cynomolgus TIGIT; remark: listed apart in the source
[20] = molecular target: T7, human TIGIT expressed on CHO-K1 cells; experiment: FACS competition, CD155 binding to CHO-TIGIT cells
[21] = molecular target: T7, human TIGIT expressed on CHO-K1 cells; experiment: FACS competition, CD155 binding to CHO-TIGIT cells; remark: listed apart in the source
[22] = molecular target: T1, human TIGIT-His protein (Acrobiosystems); experiment: SPR (BIAcore T200), target amine-coupled to CM5 chip
[23] = molecular target: T9, cynomolgus TIGIT-His protein (Acrobiosystems) (cynomolgus, UniProt A0A7N9I9V4 89-209); experiment: as above
T9 construct: bought

[24] = molecular target: T1, human TIGIT-His protein (Acrobiosystems); experiment: as above; remark: listed apart in the source
[25] = molecular target: T9, cynomolgus TIGIT-His protein …; experiment: as above; remark: listed apart in the source
[26] = molecular target: T7, human TIGIT expressed on CHO-K1 cells; experiment: FACS competition, biotinylated CD155-Fc on CHO/human TIGIT cells
[27] = molecular target: T7, human TIGIT expressed on CHO-K1 cells; experiment: as above; remark: listed apart in the source
[28] = molecular target: T10, murine TIGIT expressed on CHO-K1 cells (murine, UniProt P86176 29-249); experiment: FACS, CHO-K1 cells expressing murine TIGIT
T10 construct: whole, on cells; also called CHO/mouse TIGIT; mouse TIGIT expressed on CHO cells
T10 sequence (looked up): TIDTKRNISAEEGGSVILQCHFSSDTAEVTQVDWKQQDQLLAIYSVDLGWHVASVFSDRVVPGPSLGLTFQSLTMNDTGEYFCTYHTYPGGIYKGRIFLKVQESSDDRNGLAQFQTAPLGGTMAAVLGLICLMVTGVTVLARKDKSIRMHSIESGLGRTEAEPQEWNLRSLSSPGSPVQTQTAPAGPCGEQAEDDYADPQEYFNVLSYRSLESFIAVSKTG

murine TIGIT-Fc = molecular target: T11, murine TIGIT-Fc (murine, UniProt P86176 29-148, limits assumed); experiment: FACS competition, murine TIGIT-Fc binding to CT26 cells (murine CD155)
T11 construct: not shown: Fc part, detected with a secondary antibody against human Fc
T11 sequence (looked up): T2 sequence (looked up)

T6 sequence (Q15116 25-288 limits assumed): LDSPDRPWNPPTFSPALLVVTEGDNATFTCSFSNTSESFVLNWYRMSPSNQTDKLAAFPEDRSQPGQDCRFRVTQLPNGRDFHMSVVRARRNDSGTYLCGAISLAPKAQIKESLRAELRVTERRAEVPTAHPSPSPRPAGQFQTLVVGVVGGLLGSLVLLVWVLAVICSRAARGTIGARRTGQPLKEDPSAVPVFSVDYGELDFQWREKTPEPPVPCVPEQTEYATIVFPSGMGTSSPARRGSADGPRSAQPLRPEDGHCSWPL
T9 sequence (A0A7N9I9V4 entry or part of it): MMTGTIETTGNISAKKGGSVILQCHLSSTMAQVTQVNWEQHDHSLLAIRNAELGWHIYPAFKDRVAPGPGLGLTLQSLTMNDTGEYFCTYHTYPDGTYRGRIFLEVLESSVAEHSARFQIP
T5 sequence (Q15116 25-167 limits assumed): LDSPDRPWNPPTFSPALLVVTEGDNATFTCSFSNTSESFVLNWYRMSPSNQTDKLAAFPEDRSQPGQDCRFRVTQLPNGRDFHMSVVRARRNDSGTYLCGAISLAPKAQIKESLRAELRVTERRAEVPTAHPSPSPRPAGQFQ
T8 sequence (A0A7N9I9V4 entry or part of it): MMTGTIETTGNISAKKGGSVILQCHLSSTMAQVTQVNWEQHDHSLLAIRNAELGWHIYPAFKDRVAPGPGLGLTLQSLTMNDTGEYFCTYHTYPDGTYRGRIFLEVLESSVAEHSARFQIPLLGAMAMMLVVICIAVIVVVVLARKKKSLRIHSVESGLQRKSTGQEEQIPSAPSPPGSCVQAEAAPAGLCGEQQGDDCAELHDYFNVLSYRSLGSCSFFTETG

B1: AS19584VH28-Fc fusion protein with effectorless human IgG1 (inert hIgG1) Fc (Fc fusion)
chain: EVQLVESGGGLVQPGGSLRLSCAASGYKYGVYSMGWFRQAPGKGLEGVSAICSGGRTTYSDSVKGRFTISRDNSNQILYLQMNSLRAEDTAVYYCAARPLWTGDCDLSSSWYKTWGQGTLVTVSSAPELLGGPSVFLFPPKPKDTLMISRTPEVTCVVVDVSHEDPEVKFNWYVDGVEVHNAKTKPREEQYASTYRVVSVLTVLHQDWLNGKEYKCKVSNKALPAPIEKTISKAKGQPREPQVYTLPPSREEMTKNQVSLTCLVKGFYPSDIAVEWESNGQPENNYKTTPPVLDSDGSFFLYSKLTVDKSRWQQGNVFSCSVMHEALHNHYTQKSLSLSPGK
notes: built from the sdAb and the inert IgG1 Fc region it names; also called AS19584VH28 (inert IgG1); AS19584VH28 inert IgG1
Kd [1]: 0.36 nM
Kd [2]: 1.1 nM
TIGIT Reporter assay EC50 [3]: 5.42 nM
PD-L1/TIGIT bifunctional reporter assay: EC50 [4]: 10.6 nM
PD-L1/TIGIT bifunctional reporter assay: Upper plateau of signal [4]: 1610
EC50 [5]: 0.174 nM
EC50 [6]: 0.107 nM

B3: 22G2 (IgG1) mAb (antibody, V domains shown)
VH: QVQLQESGPGLVKPSETLSLTCTVSGGSVSSGIYYWSWIRQPPGKGLEWIGYIYYSGSTNYNPSLKSRVTISVDTSKNQFSLKLSSVTAADTAVYYCARDYYVSGNYYNVDYYFFGVDVWGQGTTVTVSS
VL: EIVLTQSPATLSLSPGERATLSCRASQSVSSYLAWYQQKPGQAPRLLIYDASNRATGIPARFSGSGSGTDFTLTISSLEPEDFAVYYCQQRSNWPPLFTFGPGTKVDIKR
notes: also called 22G2 (IgG1) (anti-TIGIT)
EC50 [11]: 2.46 nM
EC50 [12]: 1.6 nM
TIGIT/CD155 blockade reporter assay, EC50 [13]: 7.92 nM
TIGIT/CD155 blockade reporter assay, Signal span [13]: 108
IL-2 release assay EC50 [14]: 3.07 nM
Reporter assay EC50 [14]: 3.04 nM
TIGIT IL-2 release EC50 [15]: 2.26 nM
TIGIT Reporter assay EC50 [15]: 6.01 nM
TIGIT Reporter assay EC50 [3]: 4.65 nM
EC50 [16]: 1.14 nM
EC50 [17]: 0.494 nM
EC50 [18]: 0.604 nM
EC50 [19]: 1.12 nM
EC50 [20]: 1.11 nM
EC50 [21]: 2.31 nM
Kd [22]: 0.19 nM
koff [22]: 0.00027 s⁻¹
kon [22]: 1.4e+06 M⁻¹ s⁻¹
Kd [23]: 3.4 nM
koff [23]: 0.0068 s⁻¹
kon [23]: 2e+06 M⁻¹ s⁻¹
Kd [24]: 0.12 nM
koff [24]: 0.00016 s⁻¹
kon [24]: 1.4e+06 M⁻¹ s⁻¹
Kd [25]: 4.1 nM
koff [25]: 0.0056 s⁻¹
kon [25]: 1.3e+06 M⁻¹ s⁻¹
EC50 [26]: 2.7 nM
EC50 [27]: 1.94 nM

B5: 10A7 mAb (antibody, human IgG1, kappa, V domains shown)
VH: EVQLVESGGGLTQPGKSLKLSCEASGFTFSSFTMHWVRQSPGKGLEWVAFIRSGSGIVFYADAVRGRFTISRDNAKNLLFLQMNDLKSEDTAMYYCARRPLGHNTFDSWGQGTLVTVSS
VL: DIVMTQSPSSLAVSPGEKVTMTCKSSQSLYYSGVKENLLAWYQQKPGQSPKLLIYYASIRFTGVPDRFTGSGSGTDYTLTITSVQAEDMGQYFCQQGINNPLTFGDGTKLEIKR
EC50 [16]: 4.06 nM
EC50 [28]: 0.709 nM
EC50 [26]: 5.27 nM
EC50 (murine TIGIT-Fc): 71.3 nM

B7: BTP-11 (bispecific antibody, human IgG4 S228P, kappa)
heavy: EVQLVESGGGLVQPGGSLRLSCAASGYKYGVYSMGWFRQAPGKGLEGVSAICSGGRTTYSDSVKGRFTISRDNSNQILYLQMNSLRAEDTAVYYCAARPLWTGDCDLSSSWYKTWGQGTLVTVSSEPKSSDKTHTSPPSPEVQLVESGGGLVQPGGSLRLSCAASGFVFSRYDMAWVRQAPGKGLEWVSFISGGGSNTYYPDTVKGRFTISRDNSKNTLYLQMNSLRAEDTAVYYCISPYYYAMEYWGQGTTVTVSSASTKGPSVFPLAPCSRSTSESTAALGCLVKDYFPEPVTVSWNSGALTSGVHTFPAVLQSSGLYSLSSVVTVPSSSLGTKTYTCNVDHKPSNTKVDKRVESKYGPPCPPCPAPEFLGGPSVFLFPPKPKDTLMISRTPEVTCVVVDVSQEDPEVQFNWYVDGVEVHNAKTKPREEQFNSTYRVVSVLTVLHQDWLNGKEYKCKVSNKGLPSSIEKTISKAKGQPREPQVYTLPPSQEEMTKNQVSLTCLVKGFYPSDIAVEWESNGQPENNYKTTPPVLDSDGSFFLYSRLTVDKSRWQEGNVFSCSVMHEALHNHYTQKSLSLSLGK
light: DIQMTQSPSSVSASVGDRVTITCKASQDVDTAVAWYQQKPGKAPKLLIYWASTRHTGVPSRFSGSGSGTDFTLTISSLQPEDFATYYCQQYSTFPWTFGGGTKVEIKRTVAAPSVFIFPPSDEQLKSGTASVVCLLNNFYPREAKVQWKVDNALQSGNSQESVTEQDSKDSTYSLSSTLTLSKADYEKHKVYACEVTHQGLSSPVTKSFNRGEC
notes: AS19584VH28 - mutated hIgG1 hinge - PD1-BM-min heavy chain (IgG4); also called BTP-11 (IgG4); PD-1×TIGIT BABP
Kd [2]: 0.5 nM
Kd [7]: 4 nM
EC50 (PD-1 expressed on cells [8]): 6.31 nM
PD-1 cell based assay EC50 (PD-1 expressed on cells [9]): 8.51 nM
TIGIT IL-2 release EC50 [3]: 0.778 nM
TIGIT Reporter assay EC50 [3]: 7.81 nM
EC50 (PD-1 expressed on cells [10]): 8.68 nM

Next, values leading:

Kd [7]: 1.2 nM
EC50 (PD-1 expressed on cells [8]): 1.72 nM
PD-1 cell based assay EC50 (PD-1 expressed on cells [9]): 1.21 nM
EC50 (PD-1 expressed on cells [10]): 1.51 nM
B2: PD1-BM-min (IgG4) (antibody, V domains shown)
VH: EVQLVESGGGLVQPGGSLRLSCAASGFVFSRYDMAWVRQAPGKGLEWVSFISGGGSNTYYPDTVKGRFTISRDNSKNTLYLQMNSLRAEDTAVYYCISPYYYAMEYWGQGTTVTVSS
VL: DIQMTQSPSSVSASVGDRVTITCKASQDVDTAVAWYQQKPGKAPKLLIYWASTRHTGVPSRFSGSGSGTDFTLTISSLQPEDFATYYCQQYSTFPWTFGGGTKVEIKR
notes: anti-PD-1 monoclonal antibody, human IgG4 Fc

Kd [2]: 0.62 nM
Kd [7]: 0.42 nM
EC50 (PD-1 expressed on cells [8]): 1.92 nM
PD-1 cell based assay EC50 (PD-1 expressed on cells [9]): 2.33 nM
TIGIT IL-2 release EC50 [3]: 0.565 nM
TIGIT Reporter assay EC50 [3]: 4.03 nM
EC50 (PD-1 expressed on cells [10]): 2.21 nM
B4: BTP-13 (bispecific antibody, human IgG4 S228P, kappa)
heavy: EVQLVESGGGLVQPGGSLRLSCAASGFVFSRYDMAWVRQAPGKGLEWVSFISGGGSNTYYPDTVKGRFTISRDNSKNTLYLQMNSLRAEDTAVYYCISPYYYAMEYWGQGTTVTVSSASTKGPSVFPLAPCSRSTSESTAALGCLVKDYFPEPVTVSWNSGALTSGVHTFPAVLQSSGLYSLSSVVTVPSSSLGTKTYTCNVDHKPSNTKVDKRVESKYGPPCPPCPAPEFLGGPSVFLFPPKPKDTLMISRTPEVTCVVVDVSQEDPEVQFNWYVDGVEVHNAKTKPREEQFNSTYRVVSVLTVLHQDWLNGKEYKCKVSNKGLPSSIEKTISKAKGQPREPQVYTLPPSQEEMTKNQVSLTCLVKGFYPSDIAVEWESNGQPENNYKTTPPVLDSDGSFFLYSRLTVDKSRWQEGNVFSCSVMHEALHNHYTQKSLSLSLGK
light: EVQLVESGGGLVQPGGSLRLSCAASGYKYGVYSMGWFRQAPGKGLEGVSAICSGGRTTYSDSVKGRFTISRDNSNQILYLQMNSLRAEDTAVYYCAARPLWTGDCDLSSSWYKTWGQGTLVTVSSEPKSSDKTHTSPPSPDIQMTQSPSSVSASVGDRVTITCKASQDVDTAVAWYQQKPGKAPKLLIYWASTRHTGVPSRFSGSGSGTDFTLTISSLQPEDFATYYCQQYSTFPWTFGGGTKVEIKRTVAAPSVFIFPPSDEQLKSGTASVVCLLNNFYPREAKVQWKVDNALQSGNSQESVTEQDSKDSTYSLSSTLTLSKADYEKHKVYACEVTHQGLSSPVTKSFNRGEC
notes: AS19584VH28 - mutated hIgG1 hinge - PD1-BM-min light chain; PD1-BM-min heavy chain (IgG4); also called BTP-13 (IgG4); PD-1×TIGIT BABP

EC50 [12]: 2.24 nM
TIGIT Reporter assay EC50 [3]: 11.4 nM
PD-L1/TIGIT bifunctional reporter assay: EC50 [4]: 3.61 nM
PD-L1/TIGIT bifunctional reporter assay: Upper plateau of signal [4]: 983
EC50 [21]: 2.42 nM
EC50 [5]: 1.41 nM
EC50 [6]: 0.403 nM
B6: Tiragolumab (antibody, human IgG1, kappa, V domains shown)
VH: EVQLQQSGPGLVKPSQTLSLTCAISGDSVSSNSAAWNWIRQSPSRGLEWLGKTYYRFKWYSDYAVSVKGRITINPDTSKNQFSLQLNSVTPEDTAVFYCTRESTTYDLLAGPFDYWGQGTLVTVSS
VL: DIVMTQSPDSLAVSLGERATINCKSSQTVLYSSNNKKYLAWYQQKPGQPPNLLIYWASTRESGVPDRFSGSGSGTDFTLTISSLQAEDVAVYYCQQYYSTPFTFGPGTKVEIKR
notes: also called Tiragolumab (anti-TIGIT)
